Measured values reported in patent US7657380.

target: T1, human CD30 (commercial, conjugated to digoxigenin) (human, UniProt P28908 19-379, limits assumed, conjugated to digoxigenin (DIG)); test: AlphaScreen competition
T1 sequence (looked up): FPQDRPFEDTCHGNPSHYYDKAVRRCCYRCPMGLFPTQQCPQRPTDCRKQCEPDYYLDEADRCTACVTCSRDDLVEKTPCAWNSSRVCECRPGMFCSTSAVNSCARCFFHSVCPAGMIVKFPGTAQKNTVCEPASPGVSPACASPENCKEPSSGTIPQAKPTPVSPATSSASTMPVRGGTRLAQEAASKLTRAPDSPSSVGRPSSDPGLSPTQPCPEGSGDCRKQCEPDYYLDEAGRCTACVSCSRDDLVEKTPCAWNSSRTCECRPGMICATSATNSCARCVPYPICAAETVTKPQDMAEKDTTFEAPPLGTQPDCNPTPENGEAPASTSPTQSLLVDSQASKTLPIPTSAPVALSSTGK

Binder | Fold IC50 vs H3/L3
AC10 H3.50/L3 (antibody, IgG1, name in Kabat numbering, V domains shown) VH: QIQLVQSGPEVKKPGASVKVSCKASGYTFTDYYITWVRQAPGQGLEWMGWIYPGSGNTKYNEKFQGRFVFSVDTSASTAYLQISSLKAEDTAVYFCVNYGNYWFAYWGQGTLVTVSS VL: DIVLTQSPDSLAVSLGERATINCKASQSVDFDGDSYMNWYQQKPGQPPKVLIYAASNLESGIPARFSGSGSGTDFTLTINSLEAEDAATYYCQQSNEDPWTFGGGTKVEIK | 1.4 fold
AC10 H3.52/L3 (antibody, IgG1, name in Kabat numbering, V domains shown) VH: QIQLVQSGPEVKKPGASVKVSCKASGYTFTDYYITWVRQAPGQGLEWMGWIYPGSGNTKYNEKFQGRFVFSVDTSASTAYLQISSLKAEDTAVYFCAHYGNYWFAYWGQGTLVTVSS VL: DIVLTQSPDSLAVSLGERATINCKASQSVDFDGDSYMNWYQQKPGQPPKVLIYAASNLESGIPARFSGSGSGTDFTLTINSLEAEDAATYYCQQSNEDPWTFGGGTKVEIK | 1.24 fold
AC10 H3.53/L3 (antibody, IgG1, name in Kabat numbering, V domains shown) VH: QIQLVQSGPEVKKPGASVKVSCKASGYTFTDYYITWVRQAPGQGLEWMGWIYPGSGNTKYNEKFQGRFVFSVDTSASTAYLQISSLKAEDTAVYFCAKYGNYWFAYWGQGTLVTVSS VL: DIVLTQSPDSLAVSLGERATINCKASQSVDFDGDSYMNWYQQKPGQPPKVLIYAASNLESGIPARFSGSGSGTDFTLTINSLEAEDAATYYCQQSNEDPWTFGGGTKVEIK | 0.02 fold
AC10 H3.54/L3 (antibody, IgG1, name in Kabat numbering, V domains shown) VH: QIQLVQSGPEVKKPGASVKVSCKASGYTFTDYYITWVRQAPGQGLEWMGWIYPGSGNTKYNEKFQGRFVFSVDTSASTAYLQISSLKAEDTAVYFCARYGNYWFAYWGQGTLVTVSS VL: DIVLTQSPDSLAVSLGERATINCKASQSVDFDGDSYMNWYQQKPGQPPKVLIYAASNLESGIPARFSGSGSGTDFTLTINSLEAEDAATYYCQQSNEDPWTFGGGTKVEIK | 0 fold
AC10 H3.55/L3 (antibody, IgG1, name in Kabat numbering, V domains shown) VH: QIQLVQSGPEVKKPGASVKVSCKASGYTFTDYYITWVRQAPGQGLEWMGWIYPGSGNTKYNEKFQGRFVFSVDTSASTAYLQISSLKAEDTAVYFCATYGNYWFAYWGQGTLVTVSS VL: DIVLTQSPDSLAVSLGERATINCKASQSVDFDGDSYMNWYQQKPGQPPKVLIYAASNLESGIPARFSGSGSGTDFTLTINSLEAEDAATYYCQQSNEDPWTFGGGTKVEIK | 0.91 fold
AC10 H3.57/L3 (antibody, IgG1, name in Kabat numbering, V domains shown) VH: QIQLVQSGPEVKKPGASVKVSCKASGYTFTDYYITWVRQAPGQGLEWMGWIYPGSGNTKYNEKFQGRFVFSVDTSASTAYLQISSLKAEDTAVYFCANYGNYWFDYWGQGTLVTVSS VL: DIVLTQSPDSLAVSLGERATINCKASQSVDFDGDSYMNWYQQKPGQPPKVLIYAASNLESGIPARFSGSGSGTDFTLTINSLEAEDAATYYCQQSNEDPWTFGGGTKVEIK | 0.53 fold
AC10 H3.58/L3 (antibody, IgG1, name in Kabat numbering, V domains shown) VH: QIQLVQSGPEVKKPGASVKVSCKASGYTFTDYYITWVRQAPGQGLEWMGWIYPGSGNTKYNEKFQGRFVFSVDTSASTAYLQISSLKAEDTAVYFCANYGNYWFQYWGQGTLVTVSS VL: DIVLTQSPDSLAVSLGERATINCKASQSVDFDGDSYMNWYQQKPGQPPKVLIYAASNLESGIPARFSGSGSGTDFTLTINSLEAEDAATYYCQQSNEDPWTFGGGTKVEIK | 0.16 fold
AC10 H3.59/L3 (antibody, IgG1, name in Kabat numbering, V domains shown) VH: QIQLVQSGPEVKKPGASVKVSCKASGYTFTDYYITWVRQAPGQGLEWMGWIYPGSGNTKYNEKFQGRFVFSVDTSASTAYLQISSLKAEDTAVYFCANYGNYWFAHWGQGTLVTVSS VL: DIVLTQSPDSLAVSLGERATINCKASQSVDFDGDSYMNWYQQKPGQPPKVLIYAASNLESGIPARFSGSGSGTDFTLTINSLEAEDAATYYCQQSNEDPWTFGGGTKVEIK | 1.05 fold
AC10 H3.60/L3 (antibody, IgG1, name in Kabat numbering, V domains shown) VH: QIQLVQSGPEVKKPGASVKVSCKASGYTFTDYYITWVRQAPGQGLEWMGWIYPGSGNTKYNEKFQGRFVFSVDTSASTAYLQISSLKAEDTAVYFCANYGNYWFASWGQGTLVTVSS VL: DIVLTQSPDSLAVSLGERATINCKASQSVDFDGDSYMNWYQQKPGQPPKVLIYAASNLESGIPARFSGSGSGTDFTLTINSLEAEDAATYYCQQSNEDPWTFGGGTKVEIK | 0.82 fold
AC10 H3.61/L3 (antibody, IgG1, name in Kabat numbering, V domains shown) VH: QIQLVQSGPEVKKPGASVKVSCKASGYTFTDYYITWVRQAPGQGLEWMGWIYPGSGNTKYNEKFQGRFVFSVDTSASTAYLQISSLKAEDTAVYFCANYGNYWFAVWGQGTLVTVSS VL: DIVLTQSPDSLAVSLGERATINCKASQSVDFDGDSYMNWYQQKPGQPPKVLIYAASNLESGIPARFSGSGSGTDFTLTINSLEAEDAATYYCQQSNEDPWTFGGGTKVEIK | 1.21 fold
AC10 H3.62/L3 (antibody, IgG1, name in Kabat numbering, V domains shown) VH: QIQLVQSGPEVKKPGASVKVSCKASGYTFTDYYITWVRQAPGQGLEWMGWIYPGSGNTKYNEKFQGRFVFSVDTSASTAYLQISSLKAEDTAVYFCANYGNYWFALWGQGTLVTVSS VL: DIVLTQSPDSLAVSLGERATINCKASQSVDFDGDSYMNWYQQKPGQPPKVLIYAASNLESGIPARFSGSGSGTDFTLTINSLEAEDAATYYCQQSNEDPWTFGGGTKVEIK | 1.22 fold
AC10 H3.63/L3 (antibody, IgG1, name in Kabat numbering, V domains shown) VH: QIQLVQSGPEVKKPGASVKVSCKASGYTFTDYYITWVRQAPGQGLEWMGWIYPGSGNTKYNEKFQGRFVFSVDTSASTAYLQISSLKAEDTAVYFCANYGNYWFAFWGQGTLVTVSS VL: DIVLTQSPDSLAVSLGERATINCKASQSVDFDGDSYMNWYQQKPGQPPKVLIYAASNLESGIPARFSGSGSGTDFTLTINSLEAEDAATYYCQQSNEDPWTFGGGTKVEIK | 1.24 fold
AC10 H3.64/L3 (antibody, IgG1, name in Kabat numbering, V domains shown) VH: QIQLVQSGPEVKKPGASVKVSCKASGYTFTDYYITWVRQAPGQGLEWMGWIYPGSGNTKYNEKFQGRFVFSVDTSASTAYLQISSLKAEDTAVYFCANYGNYWFAYWGRGTLVTVSS VL: DIVLTQSPDSLAVSLGERATINCKASQSVDFDGDSYMNWYQQKPGQPPKVLIYAASNLESGIPARFSGSGSGTDFTLTINSLEAEDAATYYCQQSNEDPWTFGGGTKVEIK | 1.28 fold

target: T1, human CD30 (commercial, conjugated to …); test: AlphaScreen competition; remark: another data set of the same source

Binder | Fold IC50 vs H3/L3
AC10 H3/L3.1 (antibody, IgG1, name in Kabat numbering, V domains shown) VH: QIQLVQSGPEVKKPGASVKVSCKASGYTFTDYYITWVRQAPGQGLEWMGWIYPGSGNTKYNEKFQGRFVFSVDTSASTAYLQISSLKAEDTAVYFCANYGNYWFAYWGQGTLVTVSS VL: AIVLTQSPDSLAVSLGERATINCKASQSVDFDGDSYMNWYQQKPGQPPKVLIYAASNLESGIPARFSGSGSGTDFTLTINSLEAEDAATYYCQQSNEDPWTFGGGTKVEIK | 1.3 fold
AC10 H3/L3.2 (antibody, IgG1, name in Kabat numbering, V domains shown) VH: QIQLVQSGPEVKKPGASVKVSCKASGYTFTDYYITWVRQAPGQGLEWMGWIYPGSGNTKYNEKFQGRFVFSVDTSASTAYLQISSLKAEDTAVYFCANYGNYWFAYWGQGTLVTVSS VL: EIVLTQSPDSLAVSLGERATINCKASQSVDFDGDSYMNWYQQKPGQPPKVLIYAASNLESGIPARFSGSGSGTDFTLTINSLEAEDAATYYCQQSNEDPWTFGGGTKVEIK | 1.24 fold
AC10 H3/L3.3 (antibody, IgG1, name in Kabat numbering, V domains shown) VH: QIQLVQSGPEVKKPGASVKVSCKASGYTFTDYYITWVRQAPGQGLEWMGWIYPGSGNTKYNEKFQGRFVFSVDTSASTAYLQISSLKAEDTAVYFCANYGNYWFAYWGQGTLVTVSS VL: NIVLTQSPDSLAVSLGERATINCKASQSVDFDGDSYMNWYQQKPGQPPKVLIYAASNLESGIPARFSGSGSGTDFTLTINSLEAEDAATYYCQQSNEDPWTFGGGTKVEIK | 1.66 fold
AC10 H3/L3.4 (antibody, IgG1, name in Kabat numbering, V domains shown) VH: QIQLVQSGPEVKKPGASVKVSCKASGYTFTDYYITWVRQAPGQGLEWMGWIYPGSGNTKYNEKFQGRFVFSVDTSASTAYLQISSLKAEDTAVYFCANYGNYWFAYWGQGTLVTVSS VL: SIVLTQSPDSLAVSLGERATINCKASQSVDFDGDSYMNWYQQKPGQPPKVLIYAASNLESGIPARFSGSGSGTDFTLTINSLEAEDAATYYCQQSNEDPWTFGGGTKVEIK | 1.04 fold
AC10 H3/L3.5 (antibody, IgG1, name in Kabat numbering, V domains shown) VH: QIQLVQSGPEVKKPGASVKVSCKASGYTFTDYYITWVRQAPGQGLEWMGWIYPGSGNTKYNEKFQGRFVFSVDTSASTAYLQISSLKAEDTAVYFCANYGNYWFAYWGQGTLVTVSS VL: DIQLTQSPDSLAVSLGERATINCKASQSVDFDGDSYMNWYQQKPGQPPKVLIYAASNLESGIPARFSGSGSGTDFTLTINSLEAEDAATYYCQQSNEDPWTFGGGTKVEIK | 1.32 fold
AC10 H3/L3.6 (antibody, IgG1, name in Kabat numbering, V domains shown) VH: QIQLVQSGPEVKKPGASVKVSCKASGYTFTDYYITWVRQAPGQGLEWMGWIYPGSGNTKYNEKFQGRFVFSVDTSASTAYLQISSLKAEDTAVYFCANYGNYWFAYWGQGTLVTVSS VL: DIVMTQSPDSLAVSLGERATINCKASQSVDFDGDSYMNWYQQKPGQPPKVLIYAASNLESGIPARFSGSGSGTDFTLTINSLEAEDAATYYCQQSNEDPWTFGGGTKVEIK | 1.64 fold
AC10 H3/L3.8 (antibody, IgG1, name in Kabat numbering, V domains shown) VH: QIQLVQSGPEVKKPGASVKVSCKASGYTFTDYYITWVRQAPGQGLEWMGWIYPGSGNTKYNEKFQGRFVFSVDTSASTAYLQISSLKAEDTAVYFCANYGNYWFAYWGQGTLVTVSS VL: DIVLTQSPDSLAVSLGERATINCKASQDVDFDGDSYMNWYQQKPGQPPKVLIYAASNLESGIPARFSGSGSGTDFTLTINSLEAEDAATYYCQQSNEDPWTFGGGTKVEIK | 0.94 fold
